Assay results reported in patent publication US20220033784A1 (priority 2020, published 2022).
Where two headings read alike, the source gives them in different places.

Legend:
Assay in all cases: cell-based or functional assay
[1] = biological target: T1, human high-affinity IL-2 receptor complex, IL-2 CD25/CD122/CD132 (α/β/γ), on cells (human, UniProt P01589 22-272; P14784 27-551; P31785 23-369)
T1 sequence (looked up) 1: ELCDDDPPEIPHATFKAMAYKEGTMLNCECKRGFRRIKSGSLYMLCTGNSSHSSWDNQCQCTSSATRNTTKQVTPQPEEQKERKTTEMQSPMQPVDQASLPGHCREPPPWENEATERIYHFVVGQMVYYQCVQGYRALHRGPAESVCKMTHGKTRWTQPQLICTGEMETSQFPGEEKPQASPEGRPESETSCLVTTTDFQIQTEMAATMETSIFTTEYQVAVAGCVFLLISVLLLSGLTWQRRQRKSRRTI
T1 sequence (looked up) 2: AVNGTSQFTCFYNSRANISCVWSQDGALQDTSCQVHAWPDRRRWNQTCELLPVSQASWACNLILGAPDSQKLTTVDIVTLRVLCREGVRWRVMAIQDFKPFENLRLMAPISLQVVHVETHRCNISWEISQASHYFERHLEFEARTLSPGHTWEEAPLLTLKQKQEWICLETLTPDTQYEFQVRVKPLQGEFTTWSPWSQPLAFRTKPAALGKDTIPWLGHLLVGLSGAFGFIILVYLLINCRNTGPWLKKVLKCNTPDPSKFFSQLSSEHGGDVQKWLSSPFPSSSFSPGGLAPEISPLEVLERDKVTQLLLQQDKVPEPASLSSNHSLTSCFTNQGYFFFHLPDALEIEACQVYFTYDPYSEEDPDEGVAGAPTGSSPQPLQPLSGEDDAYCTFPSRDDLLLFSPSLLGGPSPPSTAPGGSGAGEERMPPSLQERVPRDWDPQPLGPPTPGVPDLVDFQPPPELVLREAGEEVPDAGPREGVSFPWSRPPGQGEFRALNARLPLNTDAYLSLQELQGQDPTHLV
T1 sequence (looked up) 3: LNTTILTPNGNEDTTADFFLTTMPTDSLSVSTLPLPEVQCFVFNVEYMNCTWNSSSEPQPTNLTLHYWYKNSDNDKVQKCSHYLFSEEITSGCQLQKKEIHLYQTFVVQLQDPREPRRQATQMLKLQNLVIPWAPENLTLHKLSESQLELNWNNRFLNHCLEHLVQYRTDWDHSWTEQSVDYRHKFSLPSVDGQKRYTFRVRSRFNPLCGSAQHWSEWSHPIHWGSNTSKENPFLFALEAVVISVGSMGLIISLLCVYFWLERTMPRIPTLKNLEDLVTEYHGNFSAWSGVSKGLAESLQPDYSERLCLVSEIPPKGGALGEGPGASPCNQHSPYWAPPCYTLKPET

[2] = biological target: T2, human intermediate-affinity IL-2 receptor complex, IL-2 CD122/CD132 (β/γ), on cells (human, UniProt P14784 27-551; P31785 23-369)
T2 sequence (looked up) 1: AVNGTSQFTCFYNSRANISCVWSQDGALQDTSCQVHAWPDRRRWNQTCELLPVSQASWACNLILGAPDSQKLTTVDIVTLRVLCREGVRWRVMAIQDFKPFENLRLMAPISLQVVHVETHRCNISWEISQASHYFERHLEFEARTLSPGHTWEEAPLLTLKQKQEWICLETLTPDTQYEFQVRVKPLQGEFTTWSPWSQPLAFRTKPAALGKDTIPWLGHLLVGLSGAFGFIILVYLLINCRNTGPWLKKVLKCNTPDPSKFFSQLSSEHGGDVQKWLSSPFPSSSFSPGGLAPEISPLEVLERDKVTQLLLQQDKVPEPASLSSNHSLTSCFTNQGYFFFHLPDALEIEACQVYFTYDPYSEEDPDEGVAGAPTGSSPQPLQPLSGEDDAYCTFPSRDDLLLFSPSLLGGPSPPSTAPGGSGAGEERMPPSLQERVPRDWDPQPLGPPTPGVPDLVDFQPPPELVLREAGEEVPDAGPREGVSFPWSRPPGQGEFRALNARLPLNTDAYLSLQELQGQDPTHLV
T2 sequence (looked up) 2: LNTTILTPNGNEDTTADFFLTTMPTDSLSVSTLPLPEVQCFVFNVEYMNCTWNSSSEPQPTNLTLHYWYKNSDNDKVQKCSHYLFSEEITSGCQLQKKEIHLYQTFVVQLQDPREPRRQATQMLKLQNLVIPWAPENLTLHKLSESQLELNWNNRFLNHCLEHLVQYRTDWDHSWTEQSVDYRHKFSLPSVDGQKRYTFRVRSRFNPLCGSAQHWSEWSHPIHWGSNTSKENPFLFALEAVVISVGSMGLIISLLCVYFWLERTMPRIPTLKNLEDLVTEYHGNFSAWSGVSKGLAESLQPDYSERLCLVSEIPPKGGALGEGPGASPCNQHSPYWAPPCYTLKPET

[3] = biological target: T1, human high-affinity IL-2 receptor …; remark: listed apart in the source
[4] = biological target: T2, human intermediate-affinity IL-2 …; remark: listed apart in the source
[5] = biological target: T1, human high-affinity IL-2 receptor …; remark: listed apart in the source
[6] = biological target: T1, human high-affinity IL-2 receptor …; remark: listed apart in the source
[7] = biological target: T2, human intermediate-affinity IL-2 …; remark: listed apart in the source
[8] = biological target: T2, human intermediate-affinity IL-2 …; remark: listed apart in the source
[9] = biological target: T1, human high-affinity IL-2 receptor …; remark: listed apart in the source
[10] = biological target: T2, human intermediate-affinity IL-2 …; remark: listed apart in the source

B1: Fc-IL2v (Fc fusion)
chain: GGGGSGGGGSAPASSSTKKTQLQLEHLLLDLQMILNGINNYKNPKLTRMLTAKFAMPKKATELKHLQCLEEELKPLEEVLNGAQSKNFHLRPRDLISNINVIVLELKGSETTFMCEYADETATIVEFLNRWITFAQSIISTLT
In the case of B1, the “EC50 (read off the curve), pSTAT5 MFI in Treg cells of hPBMC” value (“EC50 … pSTAT5 MFI in Treg cells of hPBMC” below) [1] is reported as about 8 nM, the “EC50 (read off the curve), pSTAT5 MFI in NK cells of hPBMC” value (“EC50 … pSTAT5 MFI in NK cells of hPBMC” below) [2] is reported as about 3 nM and the “EC50, pSTAT5 induction in iTreg cells (ELISA)” value [3] is reported as 0.31 nM. The “EC50, pSTAT5 induction in HH T cells (ELISA)” value [4] was 24.9 nM, the “EC50 … pSTAT5 MFI in Treg cells of hPBMC” value [5] was about 8 nM and the “EC50, pSTAT5 in Treg cells of hPBMCs (flow cytometry)” value [6] was 5.88 nM. For the same binder, the “EC50, pSTAT5 in CD8 T cells of hPBMCs (flow cytometry)” value [7] was 11.3 nM, the “EC50, pSTAT5 in NK cells of hPBMCs (flow cytometry)” value [7] was 1.53 nM and the “EC50 … pSTAT5 MFI in NK cells of hPBMC” value [8] was about 3 nM. The “EC50 … pSTAT5 MFI in Treg cells of hPBMC” value [9] was about 8 nM and the “EC50 … pSTAT5 MFI in NK cells of hPBMC” value [10] was about 3 nM.
